Experiment: yeast display, Sf9 membrane polyspecificity reagent, FACS + sequencing; frameworks hold sequencing errors
Method in brief: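 A synthetic nanobody library was expressed on Saccharomyces cerevisiae BJ5465 by galactose induction for 36–48 hours. The library was stained for 1 hour at 4 °C with 10% biotinylated, detergent-solubilized Sf9 membrane reagent and enriched with streptavidin microbeads before FACS. Low and high (top ~1%) gates were set on anti-HA fluorescence for expression and streptavidin fluorescence for reagent binding, and each polyreactivity label reflects the gate of origin.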

Row | Sequence | polyreactivity (PSR sort gate)
1 | QVLLVESGGGLVQAGGSLRLSCAASGSTFLRYTMGWYRQAPGKERELVAAINYGGGSTYYADSVKGRFTISRDNAKNTVYLQMNSLKPEDTAVYYCAAGFFRSAHGGKFYYWGQGTQVTVSS | high polyreactivity
2 | QVLLVESGGGLVQAGGSLRLSCAASGSTFPLYAMGWYRQAPGTERELVAAITSGGGNTYYADSVMGRFTISRDKAQNTVYLQMNSLKPEDTAVYYCAAVGGYKTYYSYEYDYWGQGTQVTVSS | low polyreactivity
3 | QVLLVESGGGLVQAGGSLRLSCAASGSTFVVNTMRWYRLAPGKERELVAAISTGSSTYADSVKGRFTISRDNAKKTVYLQMNSLKPEDTAVYYCNTAFPGKYDYWGQGTQVTVSS | low polyreactivity
4 | QVLLVESGGGLVQAGGSLRLSCASSGRILGYYAKGWYRQAPGKERELVAGITYSAGRTYYADSVKGRFTISRDNSKNTVYLQINRQTPEDTAVYYCAKALVRSGSTRGTPGYSYWGQGTQVTVSS | high polyreactivity
5 | QVLLVESGGGLVQAGGSLRVSCAASGLIFSRYTMGGYRQAPGKERELVAAISKTGSSTYYAVSVKGRFTISRDNAKNTVYLQMKSLKPEDTAVYYCATTPTGRKKGDYWGQGTQVTVSS | high polyreactivity
6 | QVLLVESGGGLVQEGGSLRLSCSASGFTFDSNAMGWYRQAPGKERELVAAISTGGSTYYADSVKGRFTISRDNAKNTVYLQMNSLKPEDNAVYYCAREPPYPDTWYGYWGQGSQVTVSS | low polyreactivity
7 | QVLLVESGGGVVQAGGSLRLSCASSGFTYGSYAMGWYRQAPGKERELVAGITRSSGSTYYADSVKGRFTISRDNAKITDYLQMNSLKPEDTAVYYCRQFSVWGYDYWGQGTKVTVSS | high polyreactivity
8 | QVLLVESRGGLVQAGGSLRLSCAASGGTFSYYAMGWYRQAPAKERELVAAISASGGSTYYADSVKGRFTISRDNAMNTVYLQRNSLKPEDTAVYYCNARYPYYFYAGNYWGQGTQVTVSS | low polyreactivity
9 | QVLVGESGGGLVQAGGSLRLSCAASGSTFSNYAMGWYRQAPGTERELVAVSTRGASTYYADSVKGRFTISRDNAKNTVYLQMNTLKPEDTAVYYCAASYWRYRVVHSPYRYYYWGQGTQVNVSS | high polyreactivity
10 | QVMLVESGGGLVQAGGSLRLSCAASGSTFEYYAMGWYRQAPGKERELVATISIDGRTNYADSVKGRFTISRDNAKNTVYLQMNSLNPEDTAVYYCGKRVVVWYFGTGDYWGQGTQVTVSS | low polyreactivity
11 | QVNLVESGGGLVQAGGSLRLRCAASGSIYISYAMGWYRQAPGKERELVATIRSSGGRTHYSDSVKGRFTISRDNAKNTVYLQMNSLKPEDTPVYYCHYGVYQYPQDYDYWGEGTQVTVSS | low polyreactivity
12 | QVPLVESGGGLVHAVGSLRLSCAASGSIFYPYAMGWNRKAPWKERELVARITSGGSTHYADSVKGRFTISRDNDNHNVYLHMNSLKPEDTAVYYFNADYWFVEYDYWGQGTQVTVSS | low polyreactivity
13 | QVPLVESGGGLVQAGGILRLSCAASGRIFLPYAMGWYRQAPGQERELVAAITSSDGSTHYADSVKGRFTISRDNAQNTVYLQMNSLKPEDTAVYYCNAARATYYYYLDDYWGQGTQVTVSS | low polyreactivity
14 | QVPLVESGGGLVQAGGSLRLSCAASGFTFYAYTMGWYRQAPGKERELVAAINKSGSSKYYADSVKGRFTISRDNAKNTVYLQMNSLKPEDTAVYFCNAYYRKVLGYDKMDYWGQGTQVTVSS | high polyreactivity
15 | QVPLVESGGGLVQAGGSLRLSCAASGIIFGKYTMGWYRQAPGKERELVAAISKRGGSTYYADSVKGRFTISRDNAKNTVYLQMYSLKRVDTAVYYCAAERISSYDYWGQGTQVTVSS | high polyreactivity
16 | QVPLVESGGGLVQAGGSLRLSCAASGLIFRTYTMGWYRQAPGKERELVATITRRGGTTYYADSVKGRFTLSRDNAKNTVYLQMNSLKPEDTAVYYCAKSPYYTWKYDYWGQGTQVTVSS | high polyreactivity

Row | Sequence | polyreactivity (PSR sort gate)
17 | QVPLVESGGGLVQAGGSLRLSCAASGLTFDIYTMGWYRQAPGKERELVARISTSGSRTYYADSVKGRFTISRDYAKNTVYLQMNSLIPEDTAVYYCNKDGWIRRRRGSDYWGQGTQVTVSS | high polyreactivity
18 | QVPLVESGGGLVQAGGSLRLSCAASGRTFTPNGMGWYRQAPGKERELVAAITYGGGITDYADSVKGRFTISRDNAKNTVYLQMNSLKPEDTAVYYCAATTLSFEGGKYWSKYDYWGQGTQVTVSS | low polyreactivity
19 | QVPLVESGGGLVQAGGSLRLSCAASGSIFYPYAMGWYRQAPGKERELVASITWSGGSTYYADSVKGRITISRDNATNSVYRQMNSLKPEDTAVYYCAADEKLYITGYDYWGQGTQVTVSS | low polyreactivity
20 | QVPLVESVGGLVQAGGRLRLSCAASGSIFGHNTMGWYREAPGKERELVAAISVSGTRTYYADSVKGRFTISRDNAKNTVYLQMNSLKPEDTAVYYCAAEISRVRQGVAWSYKYEYWGQGTQVTVSS | high polyreactivity
21 | QVPLVESVGGLVQAGGSLRLSCAASGTIFFGYAMGSYRQAPGKERDLVASISSGDTTYYADSVKGRFTISRDNAKNTVYLQMNSLKPEDTAVYYCAAREGQLWEDGDYWGQGTQVTVSS | low polyreactivity
22 | QVPLVETGGGLVQAGGSLRLSCAASGRTFNVYAMGWYRQAPGKERELVASITWDDGTTYNADSVKGRFTNSRDNAKNTVYLQMNSLKPEVTAVYYCAADGIYRGAWSTVYESPGYDYWGQGTQVTVSS | low polyreactivity
23 | QVPQQESGGGLVQAGGSLRLSCAASGTIFQLTVMGRYRQAPGKERELVSSIDYGGNTNYADIVKGRFSISRVNAKNTVYLQMNRLKPEDTSVYYFAASSDSWTTHPYWGQATQVTVSS | low polyreactivity
24 | QVQFVESGGGLVQAGGSLRVSCAASGSTFQGYAMGWSRQAPGKERELVAAISRSGGRTYYADSVKGRFTISRDNAKNTVYLQMNSLKPEDTAVYYCAAEGHELTEGDSWGQGTQVTVSS | low polyreactivity
25 | QVQHEESGGGLVQAGGSLRLSCAASGRTYDPYAMGWYRQAPGKERELVAAISSGGSTNYADSVKGRFTISRDNAKNTVYLQMNSLKPEDTAVYYCGTDSGDGEGDYWGQGSQVTVSS | low polyreactivity
26 | QVQHEESGGGLVQAGGSLRLSCAASGSIFLHYAIGWYRQAPGKERVFVAAISFRSGSTYYADSVKGRFTISRDNAKNTVYLKLNSLKPEDTAVYYCASKSYNFIPGIREYDYWGQGTQVTVSS | low polyreactivity
27 | QVQHEESGGGLVQAGGSLRLSCAASGSIFLWNAMGSYRQAPGKERELVASIGDSTYYADSVKGRFTISRDNAKNTVYLQMNSLKPEDTAVYYCKAEVLNYLVFGYQLCYDYWGQGTQVTVSS | low polyreactivity
28 | QVQHGESGGGLLQAGGSLRLSCAASGFIFGVYEMGWYRQAPGKDTELVAAIMRSGGSTYYADSVKGRFTISRDIAKNTVYLQMNSLKPEDTAVYYCAAAYTGKYRKYDYWGQGTQVTVSS | high polyreactivity
29 | QVQHGESGGGLVQAGGRLRLICAASGSISVWYVMGWYRQAPGKERELVAAITRSGGSTFYADSVKGRFTISRDNAKNTVYLEMNSLKPEDTAVYYCAADFPSLYVWYGYGWYKYDYWGQGTQVTVSS | low polyreactivity
30 | QVQHLESGGGVVQAGGSIRLSCAASVIIFRAYAMGWYRQAPGKERELVAAITSRGGSTYYADSVKGRFTFSRDNAKNTVYLQMNSLKQEDTAVYYCNAAALADYDYWGQGTQVTLSS | low polyreactivity
31 | QVQHVDSGGGLVQAGGSLRLSCAASGRTLTVYAMGWYRQAPGKERELVAAITWRGGSTYYADSVKGRFTISRDNAKNTVYLPMNSLKPADTPVDYCAAEDYTYNGGGYEYWGQGTQVTVSS | low polyreactivity
32 | QVQHVDSRGGLVQAGGSLRLSCAASGSIVPWNDMGWYRQAPGKERQLVAAITYRGGRTYYADSVKGRFTISRDNAKNTVYLQMNSLKPEDTAVYYCATKSRRNSPRMDYWGQGTQVTVSS | high polyreactivity

— the nanobody polyreactivity screen of Harvey et al. (2022)
